Test results taken from paper doi:10.1101/2023.05.26.542399.

Target: Arabidopsis thaliana PAXX (AtPAXX), full length, untagged (Arabidopsis thaliana)
Experiment: crystal structure

- stoichiometry N: 2
Substance: Arabidopsis thaliana PAXX (AtPAXX), full length, untagged (natural protein)
